Consider 72 sequences from the supplement of paper PMC10567573.

± gives the standard deviation.

This data set in a line: protein stability index of a GFP-peptide fusion (GPS, HEK-293T) (PSI 1-6); higher = more stable. As to conditions: c terminus: a fixed tail appended.
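Note: 24-mer peptide tiles fused after GFP, lentivirally expressed, FACS-sorted into six equal bins by GFP/DsRed ratio, decoded by Illumina sequencing, PSI is the read-weighted mean bin number.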

For GAHTLVNHGYAEPAAGRELPPDMT [KCNA3], the protein stability index by setting is: (treatment: DMSO) 4.87 ± 0.13; (treatment: MLN4924 1 uM, 8 h) 4.73 ± 0.17.
As to QMAKKAEAFQLYQEAAQLDMLLEK [FLOT1], the protein stability index was found to be 2.73 ± 0.36 (treatment: DMSO) and 3.21 ± 0.64 (treatment: MLN4924 1 uM, 8 h).
With GEGVERELFVREPTGRLPALVRWW [MYORG], the protein stability index (treatment: DMSO) is 2.91 ± 0.075 and the protein stability index (treatment: MLN4924 1 uM, 8 h) is 2.77 ± 0.34.
For GVQKMNSKTVTSTMLGVFREDPKT [GCH1], in that order: 4.43 ± 0.45 and 4.05 ± 0.33.
For QRVEKDMKKAKEQLKIRKSNQIPT [FUNDC2], in that order: 4.58 ± 0.32 and 4.56 ± 0.26.
For AVWLIFFMLGLGTLLPWNFFMTAT [SLC29A1], in that order: 3.09 ± 0.66 and 2.6 ± 0.12.
Regarding QTLLPAACLLQLAEIQEACCEFLK [KLHL20], the protein stability index by setting is: (treatment: DMSO) 2.21 ± 0.31; (treatment: MLN4924 1 uM, 8 h) 2.36 ± 0.15.
For HGPFSGFPGPQEHTQVLPDVRLLP [DYRK1B], in that order: 3.57 ± 0.099 and 3.63 ± 0.21.
For QIKALNNKFASFIDKVRFLEQQNQ [KRT71], in that order: 2.38 ± 0.1 and 2.59 ± 0.4.
For QNLSRSWHDVQVSSAYVKTSEKLG [TPD52L2], in that order: 3.98 ± 0.11 and 3.82 ± 0.21.
For IKLFACYNDGVINLLEKFFEMKKG [SNAP91], the protein stability index runs as follows: (treatment: DMSO) 2.39 ± 0.57; (treatment: MLN4924 1 uM, 8 h) 2.48 ± 0.37.
In the case of NLLDVYSSQGVATPAITVSNSCPA [TFE3], the protein stability index (treatment: DMSO) is 3.4 ± 0.15 and the protein stability index (treatment: MLN4924 1 uM, 8 h) stood at 3.34 ± 0.22.
For ALSKHFIPYNAKFLGSTEVEQPKG [GULP1], in that order: 3.19 ± 0.23 and 3.55 ± 0.2.
For YGRSDVVVLCFSIANPNSLNHVKS [RHOBTB1], in that order: 3.21 ± 0.43 and 2.64 ± 0.69.
In turn, RDPFECNMCGYHSQDRYEFSSHIT [IKZF1] showed a protein stability index (treatment: DMSO) of 2.33 ± 0.4 and a protein stability index (treatment: MLN4924 1 uM, 8 h) of 2.33 ± 0.59.
In turn, APGDLSATEPATCFPSTQKPTEPS [FBF1] gave a protein stability index (treatment: DMSO) of 5.22 ± 0.22 and a protein stability index (treatment: MLN4924 1 uM, 8 h) of 5.343 ± 0.051.
For LEYLYTANVTLSLDTVEEVLSVSK [KLHL14], in that order: 2.41 ± 0.66 and 1.96 ± 0.36.
For QELQARLQTVTREKEELLQLSIER [CCDC89], in that order: 4.38 ± 0.35 and 4.32 ± 0.1.
In the case of DTLDHIRALDRLQEVPHEGPMCDL [PPP2CA], the protein stability index is, setting by setting: (treatment: DMSO) 4.76 ± 0.24; (treatment: MLN4924 1 uM, 8 h) 4.8 ± 0.066.
For DCMSRELVSLTSRNPDQRKESLCI [FBXO34], in that order: 3.93 ± 0.57 and 4.11 ± 0.32.
For VKDALFCSCLSDILRFIYSGAFQW [RHOBTB3], in that order: 2.79 ± 0.36 and 3.31 ± 0.48.
For GETYCEEHGEKIYFFCENDAEFLC [TRIM15], in that order: 3.22 ± 0.26 and 3.33 ± 0.44.
Regarding AQQWRRARHNYNDLCPPIGRRAAT [GNAS], the protein stability index was found to be 3.58 ± 0.3 (treatment: DMSO) and 3.6 ± 0.16 (treatment: MLN4924 1 uM, 8 h).
As to LSGVQRVESVFFGGGTPSLASPHT [RSAD1], the protein stability index is, setting by setting: (treatment: DMSO) 2.98 ± 0.27; (treatment: MLN4924 1 uM, 8 h) 3.07 ± 0.25.
In the case of ESVDEAGGSGPAGLRASTSDGILR [RHOBTB2], the protein stability index (treatment: DMSO) is 5.14 ± 0.21 and the protein stability index (treatment: MLN4924 1 uM, 8 h) came out at 5.16 ± 0.2.
For RNLAKRRRTYLGGAAGRSQEPEVP [RSPH3], in that order: 4.38 ± 0.26 and 4.32 ± 0.2.
For QKRYQDWFQRQYLSTPDSQSLRCD [INTS3], in that order: 2.96 ± 0.1 and 3.13 ± 0.17.
Regarding CTGTEAHISSCKLGPQVSLDPMKN [LOXL2], the protein stability index was determined as 3.5 ± 0.29 (treatment: DMSO) and 3.81 ± 0.11 (treatment: MLN4924 1 uM, 8 h).
The sequence CMSIVTSMTAGVSEREANDALNAY [INTS3] returned a protein stability index (treatment: DMSO) of 3.41 ± 0.3 and a protein stability index (treatment: MLN4924 1 uM, 8 h) of 3.49 ± 0.21.
For PRHQGHRVQPVKDTAHDFRAKCRN [TRIM35], in that order: 4.57 ± 0.15 and 4.65 ± 0.24.
Consider QDAVDQVKVIMDALDERAKVLHED [TRIM29], for which the protein stability index by setting is: (treatment: DMSO) 4.93 ± 0.1; (treatment: MLN4924 1 uM, 8 h) 4.93 ± 0.34.
For MKRHSSRDAAGKPQRPRSAPRTSS [FCHO1], in that order: 4.82 ± 0.28 and 4.92 ± 0.34.
For IGGLLGATFNCLNKRLAKYRMRNV [CLCN6], in that order: 2.34 ± 0.2 and 2.2 ± 0.53.
FSEIRETSAKVNWMPPPSRADSFK [TNXB]: the protein stability index was found to be 3.58 ± 0.31 (treatment: DMSO) and 3.88 ± 0.37 (treatment: MLN4924 1 uM, 8 h).
For FLQRGADTNLGRLEDGQTPLHLSA [ASB7], in that order: 3.61 ± 0.17 and 3.76 ± 0.26.
For EGSCYQTFRQYCGAACTCHVRNPL [RNF208], in that order: 2.4 ± 0.37 and 2.6 ± 0.2.
For QGNKKEHVIHIIDFGLAKEYIDPE [CSNK1G1], in that order: 2.5 ± 0.16 and 2.81 ± 0.24.
On to ADSTSFDVQLGDIILTATDGLFDN [PPTC7], for which the protein stability index runs as follows: (treatment: DMSO) 3.58 ± 0.22; (treatment: MLN4924 1 uM, 8 h) 3.68 ± 0.26.
For MWYPEIKHFCPRAPVILVGCQLDL [RHOBTB2], in that order: 3.24 ± 0.81 and 2.77 ± 0.28.
As to VFPGARLLTIGDANGEIQRHAEQQ [CARM1], the protein stability index runs as follows: (treatment: DMSO) 4.64 ± 0.16; (treatment: MLN4924 1 uM, 8 h) 4.23 ± 0.2.
For QPQQGYIPPMAQPGLPPVPGAPGM [ZNF207], in that order: 4.36 ± 0.068 and 4.47 ± 0.28.
For HQRKHAGEKPFECRQRLIFEQTPA [ZNF8], in that order: 3.65 ± 0.2 and 3.64 ± 0.16.
For LQNEAQKRESFLKYKCLLQQLYYT [IQUB], in that order: 2.16 ± 0.43 and 2.24 ± 0.21.
For the sequence VVNESTVCLMGHERRQTLNLISLL [TENT5C], the protein stability index reads like this: (treatment: DMSO) 2.18 ± 0.23; (treatment: MLN4924 1 uM, 8 h) 2.31 ± 0.12.
For CINIPGSYVCRCKQGYILNSDQTT [MATN2], in that order: 2.43 ± 0.17 and 2.4 ± 0.35.
For AGGGGGGAGAGAPGGGRLLLSTSL [INTS3], in that order: 3.19 ± 0.12 and 2.94 ± 0.24.
For HQVPTTAGNKAALLDQIREGAQLK [WASL], in that order: 4.95 ± 0.18 and 4.86 ± 0.33.
For GKAFSQNSGLINHQRIHTGEKPYE [ZNF24], the protein stability index runs as follows: (treatment: DMSO) 3.86 ± 0.19; (treatment: MLN4924 1 uM, 8 h) 4.33 ± 0.42.
For SKGQPRSQEESEEGEEDATSEVDK [CHGB], in that order: 5.59 ± 0.21 and 5.4 ± 0.19.
Consider DRLRRNWPPSFLSEFRALQFSLML [SPNS1], for which the protein stability index reads like this: (treatment: DMSO) 2.65 ± 0.6; (treatment: MLN4924 1 uM, 8 h) 2.31 ± 0.51.
For SEEQFRQRSPLGGDVLHAHLDIWK [SPDEF], in that order: 3.34 ± 0.36 and 3.27 ± 0.1.
For LFFVPCIFLYARPNSTFPIDKSMT [OR4A15], in that order: 3.15 ± 0.51 and 3.43 ± 1.4.
For KRPARLHTKPSQAPAVEVAPAGAS [NOP53], in that order: 4.77 ± 0.42 and 4.96 ± 0.19.
Consider VKDDELDAMLKEASGPINFTMFLN [MYL5], for which the protein stability index reads like this: (treatment: DMSO) 3.39 ± 0.082; (treatment: MLN4924 1 uM, 8 h) 3.5 ± 0.19.
TGNYRKGNAHLGYSLVTHIPAGAR [ADAMTSL2]: the protein stability index was found to be 2.95 ± 0.17 (treatment: DMSO) and 2.69 ± 0.3 (treatment: MLN4924 1 uM, 8 h).
As for AGTPGYLSPEVLRKEAYGKPVDIW [CAMK2B], the protein stability index reads like this: (treatment: DMSO) 3.29 ± 0.15; (treatment: MLN4924 1 uM, 8 h) 3.31 ± 0.14.
For LSYNLYDLLRNTHFRGVSLNLTRK [DYRK1B], in that order: 2.28 ± 0.36 and 2.15 ± 0.09.
For KCLSMFPHYICTLKQPHLLLEKYS [PNLIPRP1], in that order: 2.67 ± 0.69 and 2.51 ± 0.59.
Consider GTPGTPSYPRTPHTPGTPKSAILV [MAP2], for which the protein stability index is 3.1 ± 0.12 (treatment: DMSO) and 3.24 ± 0.35 (treatment: MLN4924 1 uM, 8 h).
For TSRFGSQCMQPNNIMGIENICELA [NR2F2], in that order: 2.88 ± 0.28 and 2.74 ± 0.35.
For EAFCHANCSGPAPAAKPDPDGGRA [P3H4], in that order: 4.82 ± 0.15 and 4.79 ± 0.19.
Consider RTELVEQAFRAIDRADYYLEEFKE [PCMTD2], for which the protein stability index runs as follows: (treatment: DMSO) 4.1 ± 0.12; (treatment: MLN4924 1 uM, 8 h) 4.12 ± 0.19.
For WEHRTRVGRLYAVYDQAVSIFYDL [SMAD6], in that order: 2.52 ± 0.66 and 2.59 ± 0.47.
For ILRFIYSGAFQWEELEEDIRKKLK [RHOBTB3], in that order: 2.25 ± 0.27 and 2.48 ± 0.53.
For PPKAPPPVIKIPECPSMGTNEAAC [RHOBTB1], in that order: 4.71 ± 0.23 and 4.86 ± 0.2.
Regarding TLCAMLPLLLFTYLNSFLHQRIPQ [SLC29A1], the protein stability index by setting is: (treatment: DMSO) 3.18 ± 0.14; (treatment: MLN4924 1 uM, 8 h) 3.06 ± 0.17.
For ELERARELKEKEATLCLEFLLQND [ANKRD44], in that order: 3.94 ± 0.2 and 4.13 ± 0.35.
For the sequence PAATFGADDLVLTLSNPQMSLEGT [ELF3], the protein stability index (treatment: DMSO) is 4.24 ± 0.3 and the protein stability index (treatment: MLN4924 1 uM, 8 h) was determined as 4.32 ± 0.23.
For IYAFAGMTNHQLSTTEWNDETLYQ [CHIT1], in that order: 2.36 ± 0.26 and 2.61 ± 0.22.
For DRQELTYQELLRVCCCELGVNPDQ [ANKRD40], in that order: 3.24 ± 0.24 and 3.34 ± 0.36.
For SEIRCDLERQNQEYQVLLDVKARL [KRT36], in that order: 3.38 ± 0.19 and 3.34 ± 0.2.
Consider LGSSRTPETVRMVLSNMEKLFCIP [IMPA1], for which the protein stability index came out at 2.08 ± 0.39 (treatment: DMSO) and 2.2 ± 0.26 (treatment: MLN4924 1 uM, 8 h).
